From patent publication US20080069777A1

Tests used:
[1] = target: whole LFA-1 in which the α subunit contains an I-domain in the high affinity locked open state, on cells (HA cells) (human) (UniProt P05107); assay: cell-based or functional assay
[2] = target: whole LFA-1 in which the α subunit contains an I-domain in the high affinity locked open state, on cells (HA cells) (human) (UniProt P05107); assay: inhibition of ICAM binding to HA cells, Guava analysis; first experiment; first experiment
[3] = target: whole LFA-1 in which the α subunit contains an I-domain in the high affinity locked open state, on cells (HA cells) (human) (UniProt P05107); assay: inhibition of ICAM binding to HA cells, Guava analysis; third experiment; third experiment
[4] = target: whole LFA-1 in which the α subunit contains an I-domain in the high affinity locked open state, on cells (HA cells) (human) (UniProt P05107); assay: inhibition of ICAM binding to HA cells, Guava analysis; fourth experiment; fourth experiment
[5] = target: whole LFA-1 in which the α subunit contains an I-domain in the high affinity locked open state, on cells (HA cells) (human) (UniProt P05107); assay: inhibition of ICAM binding to HA cells, Guava analysis; second experiment; second experiment, first lot of D2-57 IgG
[6] = target: whole LFA-1 in which the α subunit contains an I-domain in the high affinity locked open state, on cells (HA cells) (human) (UniProt P05107); assay: inhibition of ICAM binding to HA cells, Guava analysis; second experiment; second experiment, second lot of D2-57 IgG
[7] = target: whole LFA-1 in which the α subunit contains an I-domain in the low affinity locked closed state, on cells (LA cells) (human) (UniProt P05107); assay: phage ELISA, LA form of LFA-1, with Mg2+
[8] = target: whole LFA-1 in which the α subunit contains an I-domain in the low affinity locked closed state, on cells (LA cells) (human) (UniProt P05107); assay: phage ELISA, LA form of LFA-1, without Mg2+
[9] = target: whole LFA-1 in which the α subunit contains an I-domain in the high affinity locked open state, on cells (HA cells) (human) (UniProt P05107); assay: phage ELISA, HA form of LFA-1, with Mg2+; phage ELISA on HA cells, with Mg2+
[10] = target: whole LFA-1 in which the α subunit contains an I-domain in the high affinity locked open state, on cells (HA cells) (human) (UniProt P05107); assay: phage ELISA, HA form of LFA-1, without Mg2+; phage ELISA on HA cells, without Mg2+; signal at background
[11] = target: whole LFA-1 in which the α subunit contains an I-domain in the high affinity locked open state, on cells (HA cells) (human) (UniProt P05107); assay: ICAM-1 blocking assay on HA cells, soluble Fab, flow cytometry; ligand ICAM-1/SV-PE; soluble Fab, ICAM-1 blocking on HA cells, FACS

B1: D2-57 IgG1 (antibody, V domains shown)
VH: EVQLLESGGGLVQPGGSLRLSCAASGFTFSRYVMWWVRQAPGKGLEWVSYIWPSGGNTYYADSVKGRFTISRDNSKNTLYLQMNSLRAEDTAVYYCASSYDFWSNAFDIWGQGTMVTVSS
VL: DIQMTQSPSSLSASVGDRVTITCRASQSIGSYLNWYQQKTGKAPKALIYAASSLQSGVPSRFSGSGSGTDFTLTISSLQLEDFATYYCQQSYSTPSFGQGTKVEIKR
IC50 for inhibition of HA cell binding to keratinocytes [1]: 1 nM | IC50 [2]: 0.18 nM | IC50 [3]: 0.24 nM | IC50 [4]: 0.68 nM | IC50 [5]: 0.59 nM | IC50 [6]: 0.62 nM

B2: D2-57 Fab (Fab, V domains shown)
VH: EVQLLESGGGLVQPGGSLRLSCAASGFTFSRYVMWWVRQAPGKGLEWVSYIWPSGGNTYYADSVKGRFTISRDNSKNTLYLQMNSLRAEDTAVYYCASSYDFWSNAFDIWGQGTMVTVSS
VL: DIQMTQSPSSLSASVGDRVTITCRASQSIGSYLNWYQQKTGKAPKALIYAASSLQSGVPSRFSGSGSGTDFTLTISSLQLEDFATYYCQQSYSTPSFGQGTKVEIKR
ELISA signal (arbitrary units) [7]: 0.13 | ELISA signal (arbitrary units) [8]: 0.07 | ELISA signal (arbitrary units) [9]: 0.68 | ELISA signal (arbitrary units) [10]: 0.09 | IC50 [11]: 11.5 nM
